Experimental data as given in patent publication US20120172293A1 (Takeda / Millennium, published 2012).
Non-standard residues stand in square brackets, D forms with d. No end group written: not given here. Phe(3-Me) = Cc1cccc(C[C@H](N)C(=O)O)c1; 4Pal = N[C@@H](Cc1ccncc1)C(=O)O; Cha = N[C@@H](CC1CCCCC1)C(=O)O; 4Amb = NCc1ccc(C(=O)O)cc1; Abu = CC[C@H](N)C(=O)O; Aib = CC(C)(N)C(=O)O; Ahx = NCCCCCC(=O)O

T1: human Y2 receptor (human, UniProt P49146 1-381)
T1 sequence (looked up): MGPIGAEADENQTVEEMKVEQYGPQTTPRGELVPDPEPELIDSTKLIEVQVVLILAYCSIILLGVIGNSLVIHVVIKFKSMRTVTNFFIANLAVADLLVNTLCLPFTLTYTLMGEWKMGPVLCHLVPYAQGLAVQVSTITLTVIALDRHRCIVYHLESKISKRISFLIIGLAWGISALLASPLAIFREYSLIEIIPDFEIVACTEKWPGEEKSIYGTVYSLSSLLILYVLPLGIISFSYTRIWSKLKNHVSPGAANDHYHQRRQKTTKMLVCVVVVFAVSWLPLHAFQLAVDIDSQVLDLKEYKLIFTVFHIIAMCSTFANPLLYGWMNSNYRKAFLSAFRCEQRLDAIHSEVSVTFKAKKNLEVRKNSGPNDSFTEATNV

T2: human Y2 receptor (human), P49146
T2 chain: T1 sequence (looked up)

B1: 4-Aminomethylbenzoyl-[Ala26, ILe28,31, Abu32]-PYY(25-36) (peptide)
peptide: [4Amb]RAYINLI[Abu]RQRY-NH2
modifications: N-terminus assumed
SMILES: CC[C@H](NC(=O)[C@@H](NC(=O)[C@H](CC(C)C)NC(=O)[C@H](CC(N)=O)NC(=O)[C@@H](NC(=O)[C@H](Cc1ccc(O)cc1)NC(=O)[C@H](C)NC(=O)[C@H](CCCNC(=N)N)NC(=O)c1ccc(CN)cc1)[C@@H](C)CC)[C@@H](C)CC)C(=O)N[C@@H](CCCNC(=N)N)C(=O)N[C@@H](CCC(N)=O)C(=O)N[C@@H](CCCNC(=N)N)C(=O)N[C@@H](Cc1ccc(O)cc1)C(N)=O
notes: also called compound No. 354
B2: Ac-[D-Tyr21, D-Pro24, Cha27,28,36, Aib31]-PYY(20-36) (peptide)
peptide: Ac-Y[dY]AS[dP]RH[Cha][Cha]NL[Aib]TRQR[Cha]-NH2
SMILES: CC(=O)N[C@@H](Cc1ccc(O)cc1)C(=O)N[C@H](Cc1ccc(O)cc1)C(=O)N[C@@H](C)C(=O)N[C@@H](CO)C(=O)N1CCC[C@@H]1C(=O)N[C@@H](CCCNC(=N)N)C(=O)N[C@@H](Cc1c[nH]cn1)C(=O)N[C@@H](CC1CCCCC1)C(=O)N[C@@H](CC1CCCCC1)C(=O)N[C@@H](CC(N)=O)C(=O)N[C@@H](CC(C)C)C(=O)NC(C)(C)C(=O)N[C@H](C(=O)N[C@@H](CCCNC(=N)N)C(=O)N[C@@H](CCC(N)=O)C(=O)N[C@@H](CCCNC(=N)N)C(=O)N[C@@H](CC1CCCCC1)C(N)=O)[C@@H](C)O
notes: also called compound No. 355
B3: Ac-[Arg20, D-Tyr21, D-Pro24, Pya(4)26, Cha27, Aib28,31, Lys30, Phe(3Me)36]-PYY(20-36) (peptide)
peptide: Ac-R[dY]AS[dP]R[4Pal][Cha][Aib]NK[Aib]TRQR[Phe(3-Me)]-NH2
SMILES: CC(=O)N[C@@H](CCCNC(=N)N)C(=O)N[C@H](Cc1ccc(O)cc1)C(=O)N[C@@H](C)C(=O)N[C@@H](CO)C(=O)N1CCC[C@@H]1C(=O)N[C@@H](CCCNC(=N)N)C(=O)N[C@@H](Cc1ccncc1)C(=O)N[C@@H](CC1CCCCC1)C(=O)NC(C)(C)C(=O)N[C@@H](CC(N)=O)C(=O)N[C@@H](CCCCN)C(=O)NC(C)(C)C(=O)N[C@H](C(=O)N[C@@H](CCCNC(=N)N)C(=O)N[C@@H](CCC(N)=O)C(=O)N[C@@H](CCCNC(=N)N)C(=O)N[C@@H](Cc1cccc(C)c1)C(N)=O)[C@@H](C)O
notes: also called compound No. 262
B4: [Ile22,28,31, Lys23, Acp24, Ala26]-PYY(22-36) (peptide)
peptide: IK[Ahx]RAYINLITRQRY-NH2
modifications: N-terminus assumed
SMILES: CC[C@H](C)[C@H](N)C(=O)N[C@@H](CCCCN)C(=O)NCCCCCC(=O)N[C@@H](CCCNC(=N)N)C(=O)N[C@@H](C)C(=O)N[C@@H](Cc1ccc(O)cc1)C(=O)N[C@H](C(=O)N[C@@H](CC(N)=O)C(=O)N[C@@H](CC(C)C)C(=O)N[C@H](C(=O)N[C@H](C(=O)N[C@@H](CCCNC(=N)N)C(=O)N[C@@H](CCC(N)=O)C(=O)N[C@@H](CCCNC(=N)N)C(=O)N[C@@H](Cc1ccc(O)cc1)C(N)=O)[C@@H](C)O)[C@@H](C)CC)[C@@H](C)CC
notes: also called compound No. 353

Tests used:
human Y2 receptor [1] = molecular target: T1, human Y2 receptor; test: cell-based or functional assay
human Y2 receptor [2] = molecular target: T1, human Y2 receptor; test: RBA: displacement of [125I]-PYY from hY2R/CHO membranes
Description: After incubation at room temperature for 60 minutes, the mixture was filtered through the cell harvester FilterMate (PerkinElmer) using UniFilter-96 GF/C treated with polyethylenimine (PEI) solution (20 mM Tris, 0.3% PEI, pH 7.4), and the filter was washed 3 times with a filtering buffer (50 mM Tris, 5 mM MgCl₂, 150 mM NaCl, 0.03% NaN₃, 0.05% CHAPS, pH 7.4). Thereafter, UniFilter-96 GF/C was dried in a mechanical drier for 1 hour, 15 μl of the liquid scintillator MicroScint O (PerkinElmer) was added to each well, and a measurement was taken using TopCount (PerkinElmer). The data obtained were analyzed using Prism to calculate the IC₅₀ value.

[3] = molecular target: T2, human Y2 receptor (human), P49146; test: cell-based or functional assay
[4] = molecular target: T2, human Y2 receptor (human), P49146; test: RBA: [125I]-PYY displacement, hY2R/CHO membranes

Binder | GBA EC50 Ratio ([35S]GTPγS binding) (human Y2 receptor [1]) | IC50 Ratio (human Y2 receptor [2]) | GBA EC50 Ratio (vs PYY(3-36)), [35S]GTPγS [3] | IC50 Ratio (vs PYY(3-36)) [4]
B1 | 33 EC50 compound/EC50 PYY(3-36) | 68 IC50 compound/IC50 PYY(3-36) |  | 
B2 | 1.1 EC50 compound/EC50 PYY(3-36) | 1.4 IC50 compound/IC50 PYY(3-36) |  | 
[4Amb]RAYINLVTRQRY (ends and bridges not checked) [4-Aminomethylbenzoyl-[Ala26, Ile28, VAl31]-PYY(25-36)] |  |  | 4 | 7.2
B3 | 1.7 EC50 compound/EC50 PYY(3-36) | 0.5 IC50 compound/IC50 PYY(3-36) |  | 
B4 | 4.8 EC50 compound/EC50 PYY(3-36) | 9.1 IC50 compound/IC50 PYY(3-36) |  | 
